The EC50 is the concentration that produces a half-maximal response. The low end stands for higher potency in that assay, the high end for lower potency in that assay.

Assay [1] concerns the target T1, ACKR3 (Homo sapiens, UniProt P25106). Briefly: Uptake of fluorescently labelled opioid peptides by ACKR3-expressing U87 cells, imaging flow cytometry. Format: cell-based. Further details: expressed in transfected cells; for the receptor comparison in the uptake assay, transient pcDNA3.1). Particulars: 40 minutes at 37° C. In general terms: In flow cytometry, cells or beads pass a laser one at a time.
Target sequence in this assay (P25106 whole entry): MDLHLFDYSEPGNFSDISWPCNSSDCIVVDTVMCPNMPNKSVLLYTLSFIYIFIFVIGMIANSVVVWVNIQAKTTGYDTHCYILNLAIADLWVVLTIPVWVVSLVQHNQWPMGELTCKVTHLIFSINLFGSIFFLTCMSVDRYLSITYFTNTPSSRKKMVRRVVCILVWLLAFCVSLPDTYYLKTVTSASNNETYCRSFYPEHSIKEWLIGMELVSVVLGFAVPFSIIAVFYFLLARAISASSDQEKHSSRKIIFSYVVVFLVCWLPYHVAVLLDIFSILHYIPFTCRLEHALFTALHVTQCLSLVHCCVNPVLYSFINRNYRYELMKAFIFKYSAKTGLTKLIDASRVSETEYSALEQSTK
Source text: Visualization of Fluorescently Labelled Opioid Peptides Uptake by Imagestream

The subject of another assay is smNPCs. The experiment in a line: Uptake of labelled dynorphin A (1-13) by smNPCs, imaging flow cytometry. The format is cell-based, human. To be noted: 250 nM, 40 minutes at 37° C. How it is done:
U87 cells derived from human brain glioblastoma were obtained through the NIH AIDS Reagent Program from Dr. Deng and Dr. Littman. U87 stably expressing ACKR3 and CXCR4 were generated as previously described in Szpakowska, M. et al. Different contributions of chemokine N-terminal features attest to a different ligand binding mode and a bias towards activation of ACKR3/CXCR7 compared with CXCR4 and CXCR3. Br J Pharmacol 175, 1419-1438 (2018). U87 cells were grown in Dulbecco's modified Eagle medium (DMEM) supplemented with 15% foetal bovine serum and penicillin/streptomycin (100 Units/ml and 100 μg/ml). U87-ACKR3 and U87-CXCR4 were maintained under puromycin (1 μg/ml) selective pressure. smNPCs (small molecule neural precursor cells) derived from a healthy donor (C1-1) whose informed consent was obtained, were grown on Geltrex™-coated surface in N2B27 medium supplemented with 0.5 μM Purmorphamine, 3 μM CHIR 99021 and 150 μM ascorbic acid. N2B27 medium consisted of DMEM/F12 and NeuroBasal medium 50:50 with 0.5% N2 supplement, 1% B27 supplement lacking vitamin A, 1% GlutaMAX and 1% penicilin/streptomycin. Medium was renewed every other day.
Cells were distributed into 96-well plates (2×10^5 cells/well in Opti-MEM for U87 and U87-ACKR3 and 3×10^5 cells/well in N2B27 medium for smNPCs). […] For comparison of labelled opioid peptide-uptake by ACKR3 or classical opioid receptors, 1.2×10^6 U87 cells were seeded in 10-cm dishes and transfected 48 hours later with 4 μg pcDNA3.1 plasmid encoding ACKR3 or KOR, MOR or NOP. 48 hours post transfection, cells were harvested and treated as described above. Dead cells were excluded using Zombie NIR or Zombie Green viability dye (BioLegend) for FAM-labelled peptides and Cy5-labelled peptides, respectively. Images of 1×10^4 in-focus, living single cells were acquired with an ImageStream MKII imaging flow cytometer (Amnis) using 40× magnification (60× magnification for smNPCs). Samples were analysed using Ideas6.2 software. The number of spots per cell was determined using a mask-based software wizard.

The target of assay [2] is T1, ACKR3. Briefly: Opioid peptide library screening: β-arrestin-2 recruitment to ACKR3 in U87 cells. To be noted: 5 μM. Further details: expressed in transfected cells; host or cells: U87 cells, transient co-transfection of pNBe vectors. Format: cell-based. How it is done: (§1) In brief, 1.2×10^6 U87 cells were plated in 10 cm-culture dishes and 48 hours later co-transfected with pNBe vectors encoding GPCRs C-terminally tagged to SmBiT and human β-arrestin-1 or -2 or mini G proteins (mG, engineered GTPase domains of Gα subunits,) N-terminally fused to LgBiT. 48 hours post-transfection cells were harvested, incubated 25 minutes at 37° C. with Nano-Glo Live Cell substrate diluted 200-fold and distributed into white 96-well plates (5×10^4 cells per well). Ligand-induced, β-arrestin and mG recruitment to GPCRs was evaluated with a Mithras LB940 luminometer (Berthold Technologies) for 20 minutes. For concentration-response curves, the signal recorded with a saturating concentration of full agonist for each receptor was set as 100%.
Target sequence in this assay (P25106 whole entry): as above
Target sequence in this assay (P32121 whole entry partner): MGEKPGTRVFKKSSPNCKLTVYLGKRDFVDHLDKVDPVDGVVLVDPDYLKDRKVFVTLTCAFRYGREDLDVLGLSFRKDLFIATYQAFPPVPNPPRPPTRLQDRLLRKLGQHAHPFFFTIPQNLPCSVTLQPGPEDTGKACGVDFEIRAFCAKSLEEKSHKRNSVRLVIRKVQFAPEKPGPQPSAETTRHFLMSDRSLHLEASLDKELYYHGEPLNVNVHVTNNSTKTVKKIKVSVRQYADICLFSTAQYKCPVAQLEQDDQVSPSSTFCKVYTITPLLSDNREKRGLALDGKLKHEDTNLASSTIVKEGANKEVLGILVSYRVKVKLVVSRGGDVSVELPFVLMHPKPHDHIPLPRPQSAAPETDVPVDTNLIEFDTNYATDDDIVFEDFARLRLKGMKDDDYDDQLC
For orientation: Activated receptors often draw arrestin, which recruitment assays turn into a signal.

The target of a further assay is KOR (Homo sapiens, UniProt P41145). Briefly: Receptor cell surface level of KOR by HiBiT technology. The format is cell-based. The arrangement: expressed in transfected cells; host or cells: U87 cells, transient, PEI. To be noted: bafilomycin A1 1.5 μM, 180-minute stimulation. How it is done:
1.14 Monitoring of Opioid Peptide-Induced Changes in Receptor Cell Surface Levels
Determination of receptor surface expression level by NanoLuc complementation assay was performed using the Nano-Glo HiBiT extracellular detection system (Promega) according to manufacturer's protocol. […] Cells were then incubated with HiBiT extracellular reagent, consisting of Nanoluciferase extracellular substrate and LgBiT protein in HiBiT buffer. Light emission from complementation of LgBiT protein with remaining surface receptor-fused HiBiT was determined on a Mithras LB940 plate reader (Berthold Technologies). Signal was normalised to the measurement recorded at t=1 min. Noteworthy the impact of nociceptin and derivatives could not be determined in this assay due to significant LgBiT protein cross-complementation by nociceptin. Where indicated, cells were treated with bafilomycin A1 (1.5 μM in 0.15% DMSO) (Santa Cruz Biotechnology) or 0.15% DMSO for 45 minutes prior ligand stimulation and during ligand stimulation (180 minutes).
(In general: HiBiT is a short tag that completes a luciferase, so light tracks the accessible tagged protein.)

In assay [3] the target is T2, native or CXCR4-expressing U87 cells (Homo sapiens, UniProt P61073).
T2 construct: expressed in transfected cells; pcDNA3.1 transient for DMR
The experiment in a line: Binding of fluorescently labelled LIH383 to native or CXCR4-expressing cells.

For assay [4], the system named is ACKR3. Briefly: B-arrestin-1 | ACKR3 | EC50 (nM). An excerpt: Table printed on a drawing sheet, FIG. 1 (continued) H
Head of the field: B-arrestin-1 | ACKR3 | EC50 (nM)
The patent's description of the figure: FIG. 1 Opioid peptide library screening on ACKR3, hit confirmation and comparison with classical opioid receptors. (A) The ability of 58 compounds, including natural opioid peptides from the four opioid families, variants thereof and small molecule opioid receptor modulators, to induce β-arrestin-2 recruitment to ACKR3, CXCR4 and CXCR3 in U87 cells at a concentration of 5 μM. Positive control chemokines were used at a concentration of 300 nM. Results are expressed as fold change over vehicle-treated cells and presented as mean±S.D of two replicates (B-F) Comparison of potency and efficacy of ACKR3-activating peptides in inducing β-arrestin-1 recruitment to the opioid receptors MOR (B), DOR (C), KOR (D), NOP (E) and ACKR3 (F) in U87 cells. Results are expressed as percentage of indicated agonist response. […] Results from B—H are presented as mean±S.E.M (n ? 3).
Where the first naming reader finds the target: head: B-arrestin-1 | ACKR3 | EC50 (nM)

In a further assay the test system is CXCR3. The experiment in a line: β-arrestin recruitment to CXCR3 (NanoBiT). The format is cell-based, human. Particulars: saturating concentration (3 μM). How it is done: as §1
A further assay addresses T3, CX3CR1 (Homo sapiens, UniProt P49238).
T3 construct: expressed in transfected cells; host or cells: U87 cells, transient co-transfection of pNBe vectors
T3 sequence (P49238 1-355): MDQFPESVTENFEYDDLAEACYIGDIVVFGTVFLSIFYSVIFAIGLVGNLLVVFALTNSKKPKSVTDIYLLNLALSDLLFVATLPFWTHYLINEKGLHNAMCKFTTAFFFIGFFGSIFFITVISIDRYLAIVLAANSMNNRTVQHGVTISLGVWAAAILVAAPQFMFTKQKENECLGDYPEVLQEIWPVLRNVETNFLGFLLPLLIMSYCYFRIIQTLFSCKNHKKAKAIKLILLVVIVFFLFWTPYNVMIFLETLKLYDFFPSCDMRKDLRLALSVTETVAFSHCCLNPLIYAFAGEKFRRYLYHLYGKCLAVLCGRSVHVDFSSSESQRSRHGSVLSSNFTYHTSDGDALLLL
Briefly: β-arrestin recruitment to CX3CR1 (NanoBiT). To be noted: saturating concentration (3 μM). The format is cell-based. How it is done:
as §1

The next assay deals with T4, CCR3 (Homo sapiens, UniProt P51677).
T4 construct: expressed in transfected cells; host or cells: U87 cells, transient co-transfection of pNBe vectors
T4 sequence (P51677 1-355): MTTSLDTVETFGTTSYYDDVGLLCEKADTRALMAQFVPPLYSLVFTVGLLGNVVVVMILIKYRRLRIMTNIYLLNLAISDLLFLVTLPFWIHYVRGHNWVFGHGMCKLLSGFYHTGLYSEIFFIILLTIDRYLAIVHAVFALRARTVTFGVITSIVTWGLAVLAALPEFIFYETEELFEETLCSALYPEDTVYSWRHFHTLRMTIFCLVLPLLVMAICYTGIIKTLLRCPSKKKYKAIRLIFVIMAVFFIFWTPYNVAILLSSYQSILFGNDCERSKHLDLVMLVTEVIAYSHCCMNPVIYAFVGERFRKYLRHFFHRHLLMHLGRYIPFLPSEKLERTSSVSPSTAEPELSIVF
Briefly: β-arrestin recruitment to CCR3 (NanoBiT). The format is cell-based. Particulars: saturating concentration (3 μM). How it is done: as §1

Assay [5] deals with T1, ACKR3. Format: cell-based. The arrangement: expressed in transfected cells; host or cells: U87 cells, transient co-transfection of pNBe vectors. Particulars: U87 cells.
Target sequence in this assay (P25106 whole entry): as the sequence (P25106 whole entry) above
Target sequence in this assay (P49407 whole entry partner): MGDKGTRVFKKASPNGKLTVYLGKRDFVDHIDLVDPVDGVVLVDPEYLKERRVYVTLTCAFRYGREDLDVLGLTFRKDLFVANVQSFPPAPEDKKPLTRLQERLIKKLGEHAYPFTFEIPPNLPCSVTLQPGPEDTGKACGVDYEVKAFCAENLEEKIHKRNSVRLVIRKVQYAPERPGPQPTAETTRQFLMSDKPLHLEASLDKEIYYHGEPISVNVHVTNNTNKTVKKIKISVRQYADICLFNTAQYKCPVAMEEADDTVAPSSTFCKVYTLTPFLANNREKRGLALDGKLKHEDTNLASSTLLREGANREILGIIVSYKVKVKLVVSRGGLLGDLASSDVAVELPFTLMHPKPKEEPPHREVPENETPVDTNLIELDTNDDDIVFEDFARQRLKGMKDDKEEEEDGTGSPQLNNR
The target of assay [6] is T5, CXCR4 (Homo sapiens, UniProt P61073).
T5 construct: expressed in transfected cells; pcDNA3.1 transient for DMR
Briefly: HTRF ERK1/2 phosphorylation, U87 cells stably expressing CXCR4. Format: cell-based. Particulars: between 2 and 120 minutes after stimulation. How it is done: 1.6 Homogeneous Time-Resolved Fluorescence (HTRF)-Based Extracellular Signal Regulated Kinases 1 and 2 (ERK1/2) Phosphorylation Assays
Homogeneous Time-Resolved Fluorescence (HTRF)-based phospho-ERK1/2 and total-ERK1/2 assays were performed using phospho-ERK1/2 (Thr202/Tyr204) and total-ERK1/2 cellular kits (Cisbio International). In short, for quantification of total and phosphorylated ERK1/2 protein, U87 cells stably expressing (or not) ACKR3 or CXCR4 were seeded at a density of 3.5×10^4 cells per well into 96-well poly-D-lysine (PDL)-coated microtiter plates (Sigma-Aldrich). After overnight incubation, cells were starved for 4 hours at 37° C. in serum-free medium. Cells were then stimulated for the indicated time intervals with chemokine or opioid ligands, respectively, before termination by replacement of supernatants with lysis buffer followed by 1.5 hours incubation on an orbital shaker. […] D2-labeled anti-total-ERK1/2 and Eu^3+-Cryptate-labelled anti-total-ERK1/2 antibodies were added for quantification of total-ERK1/2 abundance. Following an incubation time of at least 2 hours (phospho-ERK1/2) or 24 hours (total-ERK1/2), time-resolved FRET signals were measured using the Mithras LB 940 multimode reader (Berthold Technologies) equipped with 320 nm excitation filter and 620 nm (donor) and 665 nm (acceptor) emission filters.

Assay [7] deals with T5, CXCR4. The experiment in a line: Dynamic mass redistribution (DMR), U87 cells expressing CXCR4. Particulars: 200 nM. Format: cell-based. How it is done: 1.5. Label-Free Dynamic Mass Redistribution (DMR) Assay
Dynamic mass redistribution (DMR) experiments were conducted using the Corning Epic (Corning) biosensor system as previously described in Schröder, R. et al. Deconvolution of complex G protein-coupled receptor signaling in live cells using dynamic mass redistribution measurements. Nat Biotechnol 28, 943-949 (2010) and Schröder, R. et al. Applying label-free dynamic mass redistribution technology to frame signaling of G protein-coupled receptors noninvasively in living cells. Nat Protoc. 6(11): 1748-1760 (2011). In brief, 6×10^5 U87 cells were seeded in 6-cm dishes. 24 hours later cells were transfected with pcDNA3.1-based expression plasmids coding for the respective chemokine (ACKR3, CXCR4) or opioid (KOR, NOP) receptors using polyethylenimine (PEI) reagent (Polysciences). 24 hours after transfection 1×10^4 cells per well were transferred to a 384-well Epic biosensor plate and incubated (37° C., 5% CO2) overnight. Cells were then washed twice with Hanks' balanced salt solution (HBSS) (Life Technologies) containing 20 mM HEPES (Life Technologies) and subsequently incubated in the DMR-reader for 1.5 hours to achieve temperature equilibration (37° C.). […] Alterations of ligand-induced DMR were monitored for at least 3000 seconds. Raw data were processed and analysed using GraphPad Prism 7.05 (GraphPad Inc).

T5 sequence (P61073 whole entry): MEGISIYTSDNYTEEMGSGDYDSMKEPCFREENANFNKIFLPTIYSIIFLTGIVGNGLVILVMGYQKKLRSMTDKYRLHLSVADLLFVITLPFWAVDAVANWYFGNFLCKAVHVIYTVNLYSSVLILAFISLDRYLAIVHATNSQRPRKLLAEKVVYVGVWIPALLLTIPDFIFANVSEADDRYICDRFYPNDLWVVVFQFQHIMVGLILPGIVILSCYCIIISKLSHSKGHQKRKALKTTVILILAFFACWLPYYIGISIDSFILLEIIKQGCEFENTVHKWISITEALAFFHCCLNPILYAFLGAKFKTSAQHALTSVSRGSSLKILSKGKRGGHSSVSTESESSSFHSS
T2 sequence (P61073 whole entry): as above
CXCR3, sequence (P49682 5-368 limits assumed): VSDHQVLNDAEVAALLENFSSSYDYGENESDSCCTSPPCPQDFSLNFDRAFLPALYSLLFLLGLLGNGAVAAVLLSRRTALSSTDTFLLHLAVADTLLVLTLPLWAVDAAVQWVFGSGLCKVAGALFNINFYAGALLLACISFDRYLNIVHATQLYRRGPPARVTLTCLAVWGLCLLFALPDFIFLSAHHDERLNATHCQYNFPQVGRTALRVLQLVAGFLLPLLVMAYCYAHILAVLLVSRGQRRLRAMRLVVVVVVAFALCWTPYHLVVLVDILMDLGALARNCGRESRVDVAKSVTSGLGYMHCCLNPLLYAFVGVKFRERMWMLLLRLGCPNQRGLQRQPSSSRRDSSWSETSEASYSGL
KOR, sequence (P41145 whole entry): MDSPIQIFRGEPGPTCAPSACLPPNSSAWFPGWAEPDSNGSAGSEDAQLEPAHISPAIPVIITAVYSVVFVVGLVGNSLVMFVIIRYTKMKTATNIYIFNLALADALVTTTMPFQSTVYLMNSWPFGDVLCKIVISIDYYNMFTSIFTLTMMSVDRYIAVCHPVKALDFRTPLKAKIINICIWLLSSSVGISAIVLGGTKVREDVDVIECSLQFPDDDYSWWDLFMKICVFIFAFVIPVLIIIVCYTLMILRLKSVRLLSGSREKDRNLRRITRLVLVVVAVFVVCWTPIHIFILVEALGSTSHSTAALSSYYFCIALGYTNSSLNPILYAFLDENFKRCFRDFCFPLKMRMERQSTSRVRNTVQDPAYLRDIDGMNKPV

As to “dynorphin A 1-13: endogenous opioid peptide, fragment of dynorphin A (YGGFLRRIRPKLK) [reference compound]”, in the assay with ACKR3 [1], the “uptake of the fluorescently labelled peptide by ACKR3-expressing cells (also versus classical opioid receptor)” value was “more efficient compared to that of KOR”. Besides, the “accumulation of the labelled peptide by smNPCs” value with smNPCs is “able to accumulate”.
Turning to “BAM18: opioid peptide previously reported as ACKR3 ligand (YGGFMRRVGRPEWWMDYQ)”, the “ability to induce β-arrestin-2 recruitment to ACKR3 (library screening)” value with ACKR3 [2] is “capable of inducing β-arrestin-2 recruitment to ACKR3”.
Regarding `CO/C1=C\C(C)=C\[C@@H](C)[C@@H](O)[C@@H](C)C/C(C)=C/C=C/[C@H](OC)[C@@H]([C@@H](C)[C@@H](O)[C@H](C)[C@@]2(O)C[C@@H](O)[C@H](C)[C@@H](C(C)C)O2)OC1=O` [bafilomycin A1], at KOR, the “surface levels of KOR following stimulation with opioid peptides” value was “no effect on surface levels of KOR”.
With “Cy-5-labelled LIH383: fluorescently labelled LIH383 (LIH383-Cy5)”, the “binding to native or CXCR4-expressing U87 cells” value in assay [3] is listed as “not to native or CXCR4-expressing U87 cells”.
Molecule “BAM22: proenkephalin-derived opioid peptide” registered an EC50 in the assay with ACKR3 [4] of 23.5 nM.
Regarding “big dynorphin: the precursor of dynorphin A and B”, the “β-arrestin recruitment to CXCR3” value in the assay with CXCR3 is reported as “faint induction of β-arrestin recruitment”. Moreover, the “β-arrestin recruitment to CX3CR1” value with CX3CR1 is reported as “faint induction of β-arrestin recruitment”. Further, in the assay with CCR3, the “β-arrestin recruitment to CCR3” value was “faint induction of β-arrestin recruitment”. In addition, in the assay with ACKR3 [5], the “β-arrestin recruitment to ACKR3: agonist activity/potency in words” value was “at low concentrations comparable to their activity on the classical opioid receptors”.
“CXCL12: C—X—C motif chemokine 12, endogenous ACKR3 chemokine ligand”: in the assay with CXCR4 [6], the “ERK phosphorylation, cells stably expressing CXCR4” value is given as “strong increase in ERK phosphorylation”. Moreover, in the assay with CXCR4 [7], the “DMR response of CXCR4-expressing U87 cells” value is “strong DMR”.

For the origin of these results see US12578343B2, “Selective ACKR3 modulators and uses thereof” (Luxembourg Institute of Health (LIH), priority 2019, dated 2026).
